The data set “cross-linking” deals with the molecule itself. As to the kind of experiment: cross-linking.
The data set “ITC” concerns the molecule itself. In words: ITC. On the technique in general: In ITC the heat of successive injections is recorded.
The target in another data set is human PCNA, purified (human, UniProt P12004 1-261). As to the kind of experiment: ITC.
The data set “native gel or EMSA” concerns the molecule itself. As to the kind of experiment: native gel or EMSA. (In general: Mobility shift assays separate free from complexed probe on a gel.)

Where a chain is given by its changes, count along the chain named. Names may count otherwise.

human PCNA, purified, sequence (P12004 whole entry): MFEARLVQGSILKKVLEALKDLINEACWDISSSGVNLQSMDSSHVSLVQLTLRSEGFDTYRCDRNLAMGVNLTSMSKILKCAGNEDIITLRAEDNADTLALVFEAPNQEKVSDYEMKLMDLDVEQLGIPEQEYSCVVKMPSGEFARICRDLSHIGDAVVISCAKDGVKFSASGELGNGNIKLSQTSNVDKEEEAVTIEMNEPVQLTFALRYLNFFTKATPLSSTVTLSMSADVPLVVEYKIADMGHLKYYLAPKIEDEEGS

B1: p12 subunit of human DNA polymerase delta, purified, GST tag cleaved off (natural protein)
chain: MGRKRLITDSYPVVKRREGPAGHSKGELAPELGEEPQPRDEEEAELELLRQFDLAWQYGPCTGITRLQRWCRAKQMGLEPPPEVWQVLKTHPGDPRFQCSLWHLYPL
In the case of B1, the stoichiometry N (in general, a count of units in the complex or per binding partner) in the data set “cross-linking” is 2; in the data set “ITC” it was ~0.6. Further, the dissociation constant Kd – broadly, a measure of binding affinity in units of concentration – was ~0.146 µM in “ITC” and 10 µM in the data set with human PCNA, purified. Moreover, the dH in the data set “ITC” is ~-1.82 kcal/mol.

B2: p12 L104A, Y105A mutant, purified (natural protein)
chain: B1 chain with L104A, Y105A
As to B2, in the data set “cross-linking”, the “stoichiometry N” value was determined as 2.

B3: Cdm1, fourth subunit of S. pombe DNA polymerase delta, purified (natural protein)
chain: MKKRTTQAKKSGQNTNIRDVFPHVVRSNSSQSHIGKKVSSEQSPTPDVTITTKTLDERIKEDDELSKEVEEAWNQIMAERISEPIHCENITKVEFILHHFDTTARYGPYLGMTRMQRWKRAKNFNLNPPETVGKILMLEEADEENRKRESLFYDLQTIPG
With B3, the binding result in “native gel or EMSA” is on record as “binds”.
